# Laboratory results taken from a protein production outcome set (Wang et al. 2014).
# Assay: label from the status in PepcDB records
sequence,measurement,value
MGLNIKPLVVSVLGSVLLAGCATAPPKQQDNLCEIFREKSGWYDDAKYMEKEWGTPIHVAMAIIKQESSFRHDAKPPKDYVLGFIPWGRVSSAYGYAQAQDPAWDDFQDSTGQGGSRSNFDDSIMFVGWYTHETRRQLGISLWDPYNQYLAYHEGRGGYKRGTYKRKPSLMKVARRVEQTAKTYGWQLKQCRQELEDNSSWFF,protein production,failed
MWVRVPPPAPFSIFLSPGDDIVKRRKSTRTSSFGVKGRESHDSSPFYSRAIYSNFSLPKPSEEDLIENPLPENLLDKVIEGDAREVLKKIPDCSIHLMVTSPPYNVGKEYDEDMTLDEYLEFIEEIMKEVYRVLVWGGRACFNVANLGRKPYIPLHAYLIHLFEKIGFLIRGEIIWDKGEAVSGSSTAWGSWMSPVNPVLRDQHEYIIVMSKGDLKRRKPSDREAKSTITREEFLEFTRSVWKFPPESAKRVGHPAPFPEELPYRCIQLYTFKGDVVLDPFAGVGTTCVAAVKTGRHFVGIEINPEYVKKAEERVKDILSKPTLFEDHC,protein production,failed
LQTLCDILRADPADSRTLTELGREIGASDRTLSRLFRSELGMTFPQWRTQLRLHHALVLLADSTPVTAVAHLCGWSSASAFIDAFRRTFGHTPGARPRD,protein production,failed
SIRTKQSEAKSKGDTLRQLELAALMTHCNMLITHQQLALQAAMKLAYATKNYLYALAFAKRLLELAPNEEMERTAKKVMQFCERNPNNQNQLDYDIEQSNFAIDAGRLKPCIQPPTKSCVYCGACYDESWHSMTCVVCQVAQD,protein production,not failed
KNIEETELVVEEMLEQYPNGKIVRLLFHGEQAKLPIISHIVQEYQVEVSIIQGNIQQTKQGAVGSLYIQLLGEEQNILAAIEGLRKLRVETEVIGNE,protein production,not failed
SDSTAGTDAVAVGGTFQFHSPDGKMEIFYDEADRQQLPDIGGDSLMEEGTQINLSDFENQVVILNAWGQWCAPCRSESDDLQIIHEELQAAGNGDTPGGTVLGINVRDYSRDIAQDFVTDNGLDYPSIYDPPFMTAASLGGVPASVIPTTIVLDKQHRPAAVFLREVTSKDVLDVALPLVDEA,protein production,not failed
MSPISEPSRLDPVRPGQLLMIDLPGPELDKDTAAYLREHGIGAVCLFGKNVESAEQLRRLCADLREVMGEHALIAIDHEGGAITRPEFWPFAPSAMSLGAADDQQLTEDVNAALARQLRSVGINWNFTPVLDINVNPANPVIGDRAYGSDAARVTRHGRAALAGHTREGVAPCAKHFPGHGDTHQDSHLALPRVSKSRAELDAGELAPFRALLPETPAIMTAHIVYDALDAEHPATLSPRILTGLLREEWGYDGVIVTDSMGMQAIDANYGRGEAAVRALRAGADLVMALGRREVQQATLAAVAEYVPENQAAVATKRERLRALARRFPAQADETLDPQADAALLADA,protein production,not failed
GLTTPLRELVENGFREGRIKIISSTPTLAAGLNLPARRVIIRSYRRYSSDSGMQPIPVLEYKQMAGRAGRPRLDPYGEAVLLAKSYEEFVFLFEKYIEAGAEDIWSKLGTENALRTHILSTISNGFA,protein production,failed
MPVKRIAVFSTTHIGFLDMLGRSDGIIGVSRPEFVNTPAVRSRIRSGAIKAIGMPFSPDVEALLNLEPDLVIAPALPAARKTDYQALVQAGIPVLVVAEWLEPSPLGRAEWIKLFGALVGKEKLARERFAAIESSYLKIAALSRNLPLEHHHHHH,protein production,failed
MSTYDTAVLDDTLVSCLSQLIGAEHIDTLTLEGRFEITRIAAALSGRPGPAPRAILMSGLQGSGKTTLARALEAAGFRRLCPDEEMFRRYGHYGRDFPRGEFRVREAPVLKDIALELQELLTAGHEVVVDHGFWTREERAQWAMTVMEAGGKPVLIYLPVPHEVRWDRIRKRNEQSLVDANSIEFSEEDLLRHAGRFSPPTDDEPHIVYDGQPDSVLADIQLSRHFDALEHHHHHH,protein production,failed
MKKTPIVFILFLLNFICLGQADTTMLLSDKAVQIEGTDAVNDLYNFKFEKAEGYFLYLKSQHPNHPMPYFLMALSNWWKMMPYIDNNDYTNAYEKEFLYYIDQTIEKGEEQFKADDQNVEAAFFLCAAHGFKGRYFSENKGYVKAAFAGKSALHYLTYTKGKGDLNPEFLFGESIFNYYAEWIKEEYPLLKPLVGLFPKGDKAVGLAQLKECATNAFYTRIEAQYFLLRIYTNEENNSRAAYPYAKYLSENFPDNPYFQRVYARLSFELGYYAQCEKICYDINYKVNIEMPGYEVNTGRYAAYFLGRILYEKSDLEKSKFYLLKTAAFAESGNMNKMGYSLSAYYYLGMIEVKSQNYSEAEKFFLKVIDLGEDKQDNSAVYNYSYASYQLASVYEKQQNTKRAESFYKDAIKRVKKLDEKSYASTIKEITANSEAGLERLKQPKK,protein production,failed
MASIVMLLRALMSCRLTPKDEPETSDSSSSAAKLYRNIVGDENVTRKRISVVDTSHLGDNHEFIIETTCGSNDMDEGFYWIIVRNHLM,protein production,failed
MSSLNIKQGSDAHFPDYPLASPSNNEIDLLNLISVLWRAKKTVMAVVFAFACAGLLISFILPQKWTSAAVVTPPEPVQWQELEKTFTKLRVLDLDIKIDRTEAFNLFIKKFQSVSLLEEYLRSSPYVMDQLKEAKIDELDLHRAIVALSEKMKAVDDNASKKKDEPSLYTSWTLSFTAPTSEEAQTVLSGYIDYISALVVKESIENVRNKLEIKTQFEKEKLAQDRIKMKNQLDANIQRLNYSLDIANAAGIKKPVYSNGQAVKDDPDFSISLGADGIERKLEIEKAVTDVAELNGELRNRQYLVEQLTKANINDVNFTPFKYQLSPSLPVKKDGPGKAIIVILSALIGGMVACGSVLLRYAMASRKQDAMMADHLV,protein production,not failed
MNDTSNPYATPASALQPTQAVPPVIGDYDFRIGDVISEAWAKIKGVKGILIGAFVVYSVVIQTITFILTLLFGGIGLMSEADPIAFAVGQMIASLVATAVGYPFFTGLTMIGIRRAADQPATFNEMFNYFGMLVPLLLTGLLMMLMVYVGFFLLIIPGLYLSVAYMLALPLVAERGLTPWQALETSRKAISRHWFKVFGLLLVLSLLMLVSMIPLFIGLIWTGPLFVVSMGILYRTIFGVRPLGN,protein production,failed
MPSPTVTSPQVAVNDIGSSEDFLAAIDKTIKYFNDGDIVEGTIVKVDRDEVLLDIGYKTEGVIPARELSIKHDVDPNEVVSVGDEVEALVLTKEDKEGRLILSKKRAQYERAWGTIEALKEKDEAVKGTVIEVVKGGLILDIGLRGFLPASLVEMRRVRDLQPYIGKEIEAKIIELDKNRNNVVLSRRAWLEQTQSEVRSEFLNNLQKGTIRKGVVSSIVNFGAFVDLGGVDGLVHVSELSWKHIDHPSEVVQVGDEVTVEVLDVDMDRERVSLSLKATQEDPWRHFARTHAIGQIVPGKVTKLVPFGAFVRVEEGIEGLVHISELAERHVEVPDQVVAVGDDAMVKVIDIDLERRRISLSLKQANEDYTEEFDPAKYGMADSYDEQGNYIFPEGFDAETNEWLEGFEKQRAEWEARYAEAERRHKMHTAQMEKFAAAETAGRGADDQSSASSAPSEKTAGGSLASDAQLAALREKLAGSALEHHHHHH,protein production,failed
PLGVSAAGALDRASLRRANRLVGNASSAAAIESVNGGLTVEAVGDQVIAVTGAPTTLTIESPSWVGSDDDDGGARPGGKRTVPMAAPFALLDGELLTLGAPESGFRNYVAIRGGVDAPEVLGSRSADTMSGIGPAPLAIRQVLATGEQTASTAVGAPELQPDFPGAGVTVLDVVPGPRADWFDQEALDSLCNQEWLVTPQSNRVGMRLDGKPLERTREGELPSEGTMAGALQIPPAGLPVLFLADHPITGGYPVIGVVRDEHLDRAAQVPIGGRIRFRLVPDSADFTTTTTKTPEK,protein production,not failed
MPRASISDTIPMTMASIDAGSVRFTARADKRHLNPLGGVHGGFAATVLDSVTGCAIHSILEAGVGYGTVDLSVKRVKAVPEDTPLVAEGRVLHVPCAIGSQRADLMLAPPRLGRDRRCPAGLEHHHHHH,protein production,failed
MTYKVFIDGEAGTTGLQIRARLEGRDDIRLITLGDADRKDTRARLAAFDAADVGILCLPDAAAVEIVAQLAGTGTRLIDASTAHRVDPGWVFGFAELDNDLRARIAGGQFVSNPGCYSTGAIALLHPLVKRGLIAADQALAINAISGYSGGGKAMIAEFESGKTDGPFVYATEQRHKHLPEIVAHAGLTRQPVFVPSVGPYEQGMIVQVPLPFVEPGQGAAIEAALADHYATSRFVSVVSPDHYGARIDPRRLNGTNQLELSVHGNLDTGGAVLLALLDNLGKGASGAAVQNLNIMLGLDEGLGL,protein production,failed
MKSRPRLLLVYPATHKLGWVRRFQLPSLSLKQVAAVTPPEWEVVMADEVHEDVPFGEKFDLVGITAMTHQAVRAYEIADRFRAQGVPVVLGGIHPTVLPEEAQAHADAVLIGEAEPVWAKLLDDFLAGRLAPLYRAPIPTDDRLVIPWSRRDILAGRQYLTTQTVQASRGCPYDCPFCTVTPYFGRTFRYRNPDDVLAELRSFEGKLMVFVDDNILGDPVRAKPILEGMAGMNLRWGGQANLRFAEDPELVKLVARSGCIGIFVGIESVTGPHANHAKTGNGSSQIDLVKRVRDAGIVLEASMIFGFDDHDEGIFERTVRFLEECAPSIPTFNVLTPYPGTSLFKQFDREGRLLHKDWSRYDHGQVVFRPKQMTPERLYRGWQEARWEAYRLPAIASRVMKGKGKLVNLAYNFLRRGGIERPDRIVHIREVAEP,protein production,failed
DKMDGAPSRVLHIRKLPGEVTETEVIALGLPFGKVTNILMLKGKNQAFLELATEEAAITMVNYYSAVTPHLRNQPIYIQYSNHKELKT,protein production,not failed
MYMDHFPTFGGYIFSMATYYSLIPLTLLIALRAKWDYIMRHYWRSVARGFIIAILIALPVTSILQFKLTGDYLYVYSLTKTGVCITSSCLISRMKENEYYKFNVTGLQKYGIPNLGIMQAYRLVDKKFNKLKWRYDVVNAVVIIRSLFPLPITEVWSYEVDPKESHKIIGLRKFYVYYPYNPGTLLSRAYDFEFTMFLWGSGGGVA,protein production,failed
MSKPEFIARQGRKPTGWLGHIVARVMARETRPENDRALSFLDLADGDSLIDIGCGHGETLFQADRIVRLSGSVGVDFSEVMLKRARARNRDAVWDTRMAFHCADTAALPFPDKRFGKALSVHTIYFWPNPAAHLAEAFRVLRRGGRFLFCYRSTADRRAVEEFPDTVYRFPSVQEVEEKLKLVGFLGPETTTEDIKGLEHHHHHH,protein production,failed
MDFAHLDQQLRDSVLDLKLSNEERDELRQLGSELGQDQVRYMRNRAFDLVRELALADSVNVLPALKWLEQVIKTLDANSAPVRDMASAHFSPGEDCRRKIRDLCRQARISVDICVFTISDDQLSDEIRACHQRGVAVRVISDSEKQFDVGSDIAALREAGVPVRIDDTPFHMHHKFAVFDGRTLLNGSFNWTRSATTGNEENLLVIDHPQLVASYLKEFNELWSRYAPR,protein production,failed
MSSSSVIMDFLKYSPQPLQLITRPRHSIHHSTLRSSRRLTTSHNHSTPRSSSSHHHFSPSLDPVAEHHHHQSLDRTLDLVVESPHHHSLDPSLCHQVEFHHHPPLDIILDCQLQSLLDSAINKTLEHKEEMKTLARHSTHYLITWVEYHS,protein production,failed
MFRFNLCVLLFATLATLSAAQEQTPAYVGSAECRDCHTKAAEAWEGSHHAKAWTAPTAENIVADFNDTEFRHDGTLTRFRVEDGRHYITVTEKDGVTTDYPVHSVAGIEPLQQYLLETEPGRIQSFDVVWDTIKQEWFHLYPDQDLPPDDGLHWTGPYKNWNARCAECHATGFEKNYSPVTRSYSSVPVEIGVGCEACHGPGSAHIAWATGKSLEEPLTGLSEYRLTIDYDAGTETVLQQCASCHSRREAHFDGNPVPGIPFNDAYALALLRPGAYHADGQILDEVYVYGSFLQSKMYQQGVSCSNCHEVHSAELKAEGNGVCTQCHSPAGNPSFTTLDSKNYDDPSHHYHEAGTEGAQCKSCHMIERVYMGVDGRRDHSFRIPRPDISLETDSPNACTDCHSDQSSAWAAAAIEEWYPDSENRGLHYGQVLAAGRANAVAARVPLTDLAGDTTQPGIARATALWLLEQSGDATLGAELSSMLTDTDPLVRAAAASAHGLFPPAERAAALEPALDDPRRMVRIAAGKTLLDVPRSALTPSASERLGAALREWQAGLLNRADFPETHIILAGTALTMRNFEGAERAFREVVLMDPQREEAWVMLVRIADAMRGPQAAAQVLDEALQAVPGSDTLNSMRSESLLPPQ,protein production,failed
